Results: patent publication US10570381B2, “STEP-derived peptide for brain injury treatment” (STC.UNM, priority 2010, dated 2020)

B1: TAT-STEP peptide: constitutively active STEP-derived peptide fused to HIV-1 TAT protein transduction domain, myc-tagged; exact mutation set not stated here (protein)
chain: MALYGRKKRRQRRRGEEKVEDDFLDLDAVPETPVFDCVMDIKPETDPASLTVKSMGLQERRGANVSLTLDMCEPGCNEEGFGYLVEPREESAHEYLLSASRVLRAEELHEKALDPFLLQAE
modifications: Mouse
B2: TAT-STEP peptide of SEQ ID. No. 11: cell-permeable TAT-STEP peptide given intravenously in MCAO; figure legends call the treatment TAT-STEP-myc (protein)
chain: MALYGRKKRRQRRRGEEKVEDDFLDLDAVPETPVFDCVMDIKPETDPASLTVKSMGLQERRGANVSLTLDMCEPGCNEEGFGYLVEPREESAHEYLLSASRVLRAEELHEKALDPFLLQAE
modifications: myc tag; Mouse

Tests used:
cultured neurons [1] = test: cell culture model of glutamate toxicity (Hoechst DNA staining); format: cell-based; settings: transduction prior to or immediately after glutamate (100 μM, 30 min); staining 24 hr later
Source text: Using a cell culture model of glutamate toxicity we first investigated the functional significance of STEP's activation following excitotoxic NMDA receptor stimulation. […] As described in Poddar et al., 2010, using a substrate-trapping mutant we established that p38 MAPK is a substrate of STEP and the KIM domain of STEP is involved in STEP-p38 interaction. NR2B-NMDAR mediated activation of STEP promotes cell survival by down-regulating p38 MAPK signaling pathway. However sustained NMDAR stimulation results in degradation of active STEP leading to secondary activation of p38 MAPK that triggers cell death pathways. Based on these findings we generated a constitutively active form of a STEP peptide that can bind irreversibly to p38 MAPK. It was rendered cell permeable by fusion to the protein transduction domain of the human immunodeficiency virus-type I, TAT.

striatum = test: animal model of glutamate toxicity, stereotactic injection into the striatum; format: in vivo; settings: injected stereotactically into the striatum prior to glutamate
cultured neurons [2] = test: oxygen-glucose deprivation (OGD), in vitro model of cerebral ischemia; format: cell-based; settings: pre-incubation with peptide; OGD 2 hr; viability tested 24 hr later
Procedure: In subsequent experiments we used oxygen-glucose deprivation (OGD) as an in vitro model of cerebral ischemia to evaluate the role of TAT-STEP peptide in neuroprotection following an ischemic insult. Cultured neurons were submerged in glucose free buffer in a hypoxic chamber (oxygen-glucose deprivation or OGD) for 2 hr in the presence or absence of the peptide and cell viability was tested by Hoechsy DNA staining 24 hr later.

male Wistar rats = test: middle cerebral artery occlusion (MCAO) acute ischemic stroke model; format: in vivo, rat; settings: intravenous, reperfusion 24 hr, vs saline, p<0.01
Procedure: FIG. 13 is a quantitative analysis of the infarct volume. Infarct volumes are expressed as a percentage of the contralateral (control) hemisphere and the data are mean +/− SEM (p<0.01).
FIG. 15 is a quantitative analysis of the infarct volume. Infarct volumes are expressed as a percentage of the contralateral (control) hemisphere and the data are mean +/− SEM (p<0.01).
Using an animal model of cerebral ischemia (middle cerebral artery occlusion for 90 min to generate embolic stroke followed by reperfusion for 24 hr), we evaluated whether degradation of active STEP contributes to neuronal cell death and subsequent brain damage and if the modified STEP peptide can mitigate ischemic brain damage. At first we examined the temporal profile of STEP's activation and subsequent degradation following cerebral ischemia and reperfusion and also evaluated its correlation with p38 MAPK activation. The findings show a rapid but transient increase in phosphorylation of p38 MAPK within 15 min of ischemic insult. This was followed by a time-dependent decrease in p38 phosphorylation from 30 min, which returned to basal levels by 90 min. […] As a consequence, active STEP limits the duration of activation of p38 MAPK. Progressive down regulation of active STEP through degradation is evident from ˜6 hours after reperfusion resulting in secondary activation of p38 MAPK. […]

Molecule	neuronal cell death as assessed by Hoechst DNA staining (cultured neurons [1])	glutamate-induced excitotoxic cell death in vivo (striatum)	OGD-induced cell death (Hoechst DNA staining) (cultured neurons [2])	protection against ischemic brain injury (infarct volume, TTC staining) (male Wistar rats; 1.5 hr after onset of stroke (MCAO 90 min))	protection against ischemic brain injury (infarct volume, TTC staining) (male Wistar rats; immediately before MCAO 90 min)
B1	blocked neuronal cell death	could attenuate glutamate-induced excitotoxic cell death in vivo	significant reduction in OGD-induced cell death	–	–
B2	–	–	–	significant protection against ischemic brain injury	significant protection against ischemic brain injury
